This note sets out measurements from publication PMC10359615, “Mechanistic insight into AP-endonuclease 1 cleavage of abasic sites at stalled replication fork mimics”.

Data set [1] addresses APE1Dead (catalytically dead APE1) (human, UniProt P27695 1-318, D210N;E96Q). As to the kind of experiment: competition; FRET; DNA pre-saturated with 75 nM Cy5-RPA; APE1Dead completely exchanges for RPA; EMSA: 50 mM Tris pH 8, 1 mM EDTA, 0.2 mg/ml BSA, 1 mM DTT, 5% sucrose, room temperature, 5 nM DNA; FRET: 20 mM HEPES pH 7.5, 150 mM KCl, 5 mM MgCl2, 5 mM CaCl2, 1 mM DTT, ionic strength 200 mM with KCl, 23 C. Conditions: protein: recombinant; label: Cy3 at primer 3' end; 3' recessed primer-template junction, 5' ssDNA overhang 33 nt. In general terms: In EMSA bound probe runs differently from free probe, usually more slowly.

In data set [2] the target is RPA (RPA1/RPA2/RPA3 heterotrimer) (human, UniProt P27694;P15927;P35244 1-616;1-270;1-121). Kind of data set: mass photometry; 4:1 RPA:DNA; a single RPA per DNA; EMSA: 50 mM Tris pH 8, 1 mM EDTA, 0.2 mg/ml BSA, 1 mM DTT, 5% sucrose, room temperature, 5 nM DNA; FRET: 20 mM HEPES pH 7.5, 150 mM KCl, 5 mM MgCl2, 5 mM CaCl2, 1 mM DTT, ionic strength 200 mM with KCl, 23 C. Conditions: protein: recombinant; copies: 1;1;1.
Chain of RPA (RPA1/RPA2/RPA3 heterotrimer) (P27694 whole entry, chain 1 of 3): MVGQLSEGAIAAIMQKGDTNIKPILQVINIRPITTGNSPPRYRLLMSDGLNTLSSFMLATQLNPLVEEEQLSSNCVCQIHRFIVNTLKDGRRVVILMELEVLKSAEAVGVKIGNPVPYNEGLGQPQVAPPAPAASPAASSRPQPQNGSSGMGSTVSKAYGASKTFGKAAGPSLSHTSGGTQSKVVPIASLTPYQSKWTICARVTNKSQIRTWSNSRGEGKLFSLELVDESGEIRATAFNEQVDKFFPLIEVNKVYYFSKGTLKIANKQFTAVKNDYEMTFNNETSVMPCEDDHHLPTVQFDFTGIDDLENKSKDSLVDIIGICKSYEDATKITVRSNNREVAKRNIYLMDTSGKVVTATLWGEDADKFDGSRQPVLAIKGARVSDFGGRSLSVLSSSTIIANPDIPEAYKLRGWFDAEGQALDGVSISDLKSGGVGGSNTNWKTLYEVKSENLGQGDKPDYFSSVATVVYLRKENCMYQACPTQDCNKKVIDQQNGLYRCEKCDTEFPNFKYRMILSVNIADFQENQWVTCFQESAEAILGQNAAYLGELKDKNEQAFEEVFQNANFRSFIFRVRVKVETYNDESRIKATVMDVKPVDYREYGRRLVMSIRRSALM
Chain of RPA (RPA1/RPA2/RPA3 heterotrimer) (P15927 whole entry, chain 2 of 3): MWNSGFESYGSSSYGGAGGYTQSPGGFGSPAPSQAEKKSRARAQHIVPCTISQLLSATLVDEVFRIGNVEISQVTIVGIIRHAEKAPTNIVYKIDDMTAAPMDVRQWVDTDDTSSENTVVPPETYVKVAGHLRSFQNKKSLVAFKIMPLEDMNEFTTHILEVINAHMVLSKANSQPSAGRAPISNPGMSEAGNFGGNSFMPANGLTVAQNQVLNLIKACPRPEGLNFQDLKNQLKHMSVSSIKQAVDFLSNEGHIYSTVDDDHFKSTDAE
Chain of RPA (RPA1/RPA2/RPA3 heterotrimer) (P35244 whole entry, chain 3 of 3): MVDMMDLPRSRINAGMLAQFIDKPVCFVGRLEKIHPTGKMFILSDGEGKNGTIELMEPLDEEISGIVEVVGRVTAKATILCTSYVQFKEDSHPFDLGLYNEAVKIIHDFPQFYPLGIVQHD

Chain of APE1Dead (catalytically dead APE1) (P27695 whole entry E96Q/D210N): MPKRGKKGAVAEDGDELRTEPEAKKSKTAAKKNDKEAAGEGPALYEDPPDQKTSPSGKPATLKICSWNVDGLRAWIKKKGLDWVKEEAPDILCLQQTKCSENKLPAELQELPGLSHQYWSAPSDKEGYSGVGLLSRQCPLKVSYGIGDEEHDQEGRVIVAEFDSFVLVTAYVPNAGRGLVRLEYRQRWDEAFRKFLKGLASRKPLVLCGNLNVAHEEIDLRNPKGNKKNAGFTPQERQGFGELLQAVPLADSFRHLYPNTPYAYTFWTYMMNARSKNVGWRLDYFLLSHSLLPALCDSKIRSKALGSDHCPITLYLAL

B1: Cy3-Rec-PTJ (mixed)
DNA 1: ACTCCTTCCGCACGTAATTTTTGACGCAC
DNA 2: TGACTCTTCTGCGTTCGCTGATGCGCCGACGGGTGCGTCAAAAATTACGTGCGGAAGGAGT
modifications: THF 7 nt from the junction
B1: the binding result in data set [1] was “binds”. For the molecule TTTTTTTTTTTTTTTTTTTTTTTTTTTTTTTTTTT (ssDNA) [(dT)35], the binding result in data set [2] is reported as “binds”.
